{"source": "patent US20210139574A1", "binders": {"B1": {"name": "AB1 having a murinised VL of SEQ ID NO: 9 and a murinised VH of SEQ ID NO.: 10 (antibody, V domains shown)", "VL": "DVVMTQSPASLAVSLGQRATISCQASQSVSSYLAWYQQKPGQPPKLLIYAASYLASGVPSRFKGSGSGTEFTLNIHPVEEEDAATYYCQQGYTRTDIDNTFGGGTKLEIK", "VH": "QVQLKESGPGLVAPSQSLSITCTVSGIDLSTWRMNWVRQPPGKGLEWIGIIGTGGRTYYANWAKGRFSISKDSTQVFLKMNSLQTEDTATYFCARLGANNNGYPLDLWGAGTTVTVSS"}}, "biological_target": "Tau seeds: brain fraction from transgenic mice expressing human Tau P301S (human), P10636", "sequence (P10636 other isoform, or with tags, fused parts or gaps P301S P301S)": "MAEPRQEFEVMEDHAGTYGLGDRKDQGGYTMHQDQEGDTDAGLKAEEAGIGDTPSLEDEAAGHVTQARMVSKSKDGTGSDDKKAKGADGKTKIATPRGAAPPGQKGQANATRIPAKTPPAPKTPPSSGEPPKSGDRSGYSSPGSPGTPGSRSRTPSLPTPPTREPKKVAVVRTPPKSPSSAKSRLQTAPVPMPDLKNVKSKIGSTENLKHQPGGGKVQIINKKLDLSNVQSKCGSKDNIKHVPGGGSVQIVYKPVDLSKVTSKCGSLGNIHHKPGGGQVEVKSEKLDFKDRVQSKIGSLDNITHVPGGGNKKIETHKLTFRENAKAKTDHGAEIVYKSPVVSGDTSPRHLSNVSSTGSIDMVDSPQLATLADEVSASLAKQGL", "experiment": "cell-based or functional assay", "data": [{"binder": "B1", "values": [{"measurement": "IC50, cellular Tau aggregation assay", "result": 8, "unit": "nM"}, {"measurement": "Imax (maximal efficacy at 300 nM), cellular Tau aggregation assay", "result": 62, "unit": "%"}]}]}
